According to patent publication US8257928B2, “Methods for predicting and treating tumors resistant to drug, immunotherapy and radiation” (The Regents of the University of California, priority 2008, dated 2012):
Entries after “also recorded” stand apart in the source; their conditions may differ.

System: HMT3522 T4-2 cells
Assay: Percent cell death in 2D monolayer, 3D rBM and reverted cultures (active caspase 3)
Type: cell-based, human
Excerpt: The oligonucleotides specifying the small hairpin RNAs (shRNAs) were subcloned from pSilencer-H1 into pLZRS-MFG-CMV-Neo-U6, a recombinant self-inactivating retroviral vector constructed from the backbone of an MFG provirus (Proc. Natl. Acad. Sci. USA 85:6460-6464 (1988); Proc. Natl. Acad. Sci. USA 90:3539-3543 (1993)), which directs the expression of shRNA under the control of the U6 promoter. Amphotropic retrovirus was produced in Phoenix ampho cells (provided by Professor G. Nolan, Stanford Medical Center) with packaging vectors pCgp and pVSVG to boost viral titer. S1 cells or T4-2 cells, maintained in monolayer cultures, were then spin infected with retrovirus carrying the various RNAi constructs and infected cell populations were selected using 300 μg/ml G418 (Invitrogen).
Non-neoplastic HMT3522 S1 breast epithelial cells or neoplastic HMT3522 T4-2 cells were embedded (8.5×10^5/ml) within reconstituted basement membrane (rBM) gel (Matrigcl, BD Biosciences) in chamber slides (Lab-Tek chamber slides, Nunc) according to the procedures described in U.S. Pat. No. 6,123,941 and Nat. Method. 4:359-365 (2007). […] Phenotypic reversion of HMT3522 T4-2 cells in three dimensional rBM cultures was performed using an epidermal growth factor receptor (EGFR) specific tyrosine kinase inhibitor tyrphostin AG 1478 (100 nM) (Calbiochem), as previously described (Proc. Natl. Acad. Sci. USA 95:14821-14826 (1998))
Apoptotic cell death of the breast epithelial cells cultured in three dimensional rBM was initiated by treatment with recombinant, purified human tumor necrosis factor-related apoptosis-inducing ligand (TRAIL) peptides (BIOMOL) or Paclitaxel (Sigma-Aldrich) as described (Cancer Cell 2:205-216 (2002)). DNA damage-induced cell death was initiated by ionizing radiation (IR) using a Mark I Cesium 137 irradiator (JL Shepherd & Associates).
Percent cell death induced by TRAIL or Paclitaxel was quantified using detection of active caspase 3 (Cell Signaling) by indirect immunofluorescence as described (J. Cell Biol. 163:1397-1407 (2003)). Percent cell death induced by IR was quantified using Live/Dead Viability/Cytotoxicity Assay (Molecular Probes). For both methods, cells were counterstained with 4′,6-diamidino-2-phenylindole (DAPI) to label cell nuclei present at different focal planes in the 3D architectures. Percent death was calculated as cells positive for ethidium bromide or active caspase 3 expressed as a percentage of the total number of cells scored by the nuclear staining.
Percent cell death induced by TRAIL was quantified using detection of active caspasc 3 as described in Example 4.

## N-CoR2 (K449A): mutant N-CoR2 with lysine 449 mutated to alanine; binds HDAC3 but does not activate it
T4-2 cells in rBM gel 5 days, vs vector control cells
  sensitivity to death induction by TRAIL of cells transduced with the mutant: hypersensitive to death induction to an extent even greater than that of the vector control cells

B1: TRAIL: recombinant, purified human tumor necrosis factor-related apoptosis-inducing ligand (TRAIL) peptides (BIOMOL) (protein, UniProt P50591 1-281, looked up)
Tumor necrosis factor ligand …: MAMMEVQGGPSLGQTCVLIVIFTVLLQSLCVAVTYVYFTNELKQMQDKYSKSGIACFLKEDDSYWDPNDEESMNSPCWQVKWQLRQLVRKMILRTSEETISTVQEKQQNISPLVRERGPQRVAAHITGTRGRSNTLSSPNSKNEKALGRKINSWESSRSGHSFLSNLHLRNGELVIHEKGFYYIYSQTYFRFQEEIKENTKNDKQMVQYIYKYTSYPDPILLMKSARNSCWSKDAEYGLYSIYQGGIFELKENDRIFVSVTNEHLIDMDHEASFFGAFLVG
3D rBM disorganized aggregates vs 2D monolayer, TRAIL 1.0 μg/mL, Paclitaxel 20 μM
  death sensitivity of cells cultured in 3D rBM: decreased sensitivity
Reverted with tyrphostin AG 1478 in 3D rBM, TRAIL 1.0 μg/mL, Paclitaxel 20 μM
  death sensitivity of structurally reverted spheroids: further decrease in the sensitivity
Vs vector control cells, 3D rBM
  death sensitivity of cells with stable overexpression of wild-type N-CoR2: markedly resistant; also recorded: less sensitive
